Laboratory results as given in the RNAGym collection of RNA variant scans (doi:10.7554/elife.80360).

B1: Hammerhead Ribozyme (parent)
chain: ACCGGAUGUGCUUUCCGGUCUGAUGAGUCCGUGAGGACGAAACAG

Variants of: B1
Assay: self-cleavage, relative activity (ratio to wild type); higher = more cleavage; co-transcriptional

First: ACCGGAUGUGCUUUCCCGUCUGAUGAGUCCGAGAGGACGAAACAG
Second: ACCGGAUGUGCUUUCCCGUCUGAUGAGUCCGCGAGGACGAAACAG
The self-cleavage of the first is higher: 0.497 for the first, 0.444 for the second.

Compared with ACCGGAUGUGCUUUCCCGUCUGAUGAGUCCGGGAGGACGAAACAG, ACCGGAUGUGCUUUCCUGUCUGAUGAAUCCGUGAGGACGAAACAG is higher in self-cleavage: 0.545 for the first, 0.643 for the second.

First: ACCGGAUGUGCUUUCCUGUCUGAUGAUUCCGUGAGGACGAAACAG
Second: ACCGGAUGUGCUUUCCUGUCUGAUGACUCCGUGAGGACGAAACAG
The self-cleavage of the first is higher: 0.513 for the first, 0.486 for the second.

First: ACCGGAUGUGCUUUCCCGUCUGAUGAGUCCGUGAGCACGAAACAG
Second: ACCGGAUGUGCUUUCCCGUCUGAUGAGUCCGUGAGAACGAAACAG
The self-cleavage of the first is lower: 0.246 for the first, 0.361 for the second.

Compared with ACCGGAUGUGCUUUCCCGUCUGAUGAGUCCGUGAGUACGAAACAG, ACCGGAUGUGCUUUCCUGUCUGAUGAGUCCGGGAGGACGAAACAG is higher in self-cleavage: 0.392 for the first, 0.73 for the second.

Going from ACCGGAUGUGCUUUCCUGUCUGAUGAGUCCGCGAGGACGAAACAG to ACCGGAUGUGCUUUCCUGUCUGAUGAGUCCGAGAGGACGAAACAG, the self-cleavage rises from 0.633 to 0.764.

First: ACCGGAUGUGCUUUCCUGUCUAAUGAGUCCGUGAGGACGAAACAG
Second: ACCGGAUGUGCUUUCCUGUCUUAUGAGUCCGUGAGGACGAAACAG
The self-cleavage of the first is higher: 0.368 for the first, 0.359 for the second.

Going from ACCGGAUGUGCUUUCCUGUCUCAUGAGUCCGUGAGGACGAAACAG to ACCGGAUGUGCUUUCCUGUCUGAUGAGUCCGUGAGGACGAUACAG, the self-cleavage rises from 0.314 to 0.327.

First: ACCGGAUGUGCUUUCCUGUCUGAUGAGUCCGUGAGGACGACACAG
Second: ACCGGAUGUGCUUUCCUGUCUGAUGAGUCCGUGAGGACGAGACAG
The self-cleavage of the first is lower: 0.365 for the first, 0.375 for the second.

Compared with ACCGGAUGUGCUUUCCUGUCUGAUGAGUCCGUGAUGACGAAACAG, ACCGGAUGUGCUUUCCUGUCUGAUGAGUCCGUGACGACGAAACAG is lower in self-cleavage: 0.454 for the first, 0.405 for the second.

Going from ACCGGAUGUGCUUUCCUGUCUGAUGAGUCCGUGAAGACGAAACAG to ACCGGAUGUGCUUUCCUGUCUGUUGAGUCCGUGAGGACGAAACAG, the self-cleavage falls from 0.642 to 0.35.

Compared with ACCGGAUGUGCUUUCCUGUCUGGUGAGUCCGUGAGGACGAAACAG, ACCGGAUGUGCUUUCCUGUCUGCUGAGUCCGUGAGGACGAAACAG is lower in self-cleavage: 0.382 for the first, 0.32 for the second.

Going from ACCGGAUGUGCUUUCCUGUCUGAUGAGUCCGUGAGGAAGAAACAG to ACCGGAUGUGCUUUCCUGUCUGAUGAGUCCGUGAGGAGGAAACAG, the self-cleavage rises from 0.465 to 0.539.

Compared with ACCGGAUGUGCUUUCCUGUCUGAUGAGUCCGUGAGGAUGAAACAG, ACCGGAUGUGCUUUCCUGUCUGACGAGUCCGUGAGGACGAAACAG is lower in self-cleavage: 0.758 for the first, 0.697 for the second.

Going from ACCGGAUGUGCUUUCCUGUCUGAGGAGUCCGUGAGGACGAAACAG to ACCGGAUGUGCUUUCCUGUCUGAAGAGUCCGUGAGGACGAAACAG, the self-cleavage rises from 0.704 to 0.781.

Going from ACCGGAUGUGCUUUCCUGUUUGAUGAGUCCGUGAGGACGAAACAG to ACCGGAUGUGCUUUCCUGUGUGAUGAGUCCGUGAGGACGAAACAG, the self-cleavage falls from 0.501 to 0.359.

First: ACCGGAUGUGCUUUCCUGUAUGAUGAGUCCGUGAGGACGAAACAG
Second: ACCGGAUGUGCUUUCCUGUCUGAUGAGUCCGUGGGGACGAAACAG
The self-cleavage of the first is lower: 0.422 for the first, 0.604 for the second.

First: ACCGGAUGUGCUUUCCUGUCUGAUGAGUCCGUGUGGACGAAACAG
Second: ACCGGAUGUGCUUUCCUGUCUGAUGAGUCCGUGCGGACGAAACAG
The self-cleavage of the first is higher: 0.531 for the first, 0.46 for the second.

First: ACCGGAUGUGCUUUCCUGUCUGAUGAGUCCGUGAGGACCAAACAG
Second: ACCGGAUGUGCUUUCCUGUCUGAUGAGUCCGUGAGGACUAAACAG
The self-cleavage of the first is lower: 0.348 for the first, 0.357 for the second.

First: ACCGGAUGUGCUUUCCUGUCUGAUGAGUCCGUGAGGACAAAACAG
Second: ACCGGAUGUGCUUUCCUGUCUGAUGAGUCCGUGAGGACGAAACAG
The self-cleavage of the first is lower: 0.328 for the first, 0.855 for the second.

Compared with ACCGGAUGUGCUUUCCCGUCAGAUGAGUCCGUGAGGACGAAACAG, ACCGGAUGUGCUUUCCCGUCCGAUGAGUCCGUGAGGACGAAACAG is lower in self-cleavage: 0.306 for the first, 0.275 for the second.

Going from ACCGGAUGUGCUUUCCCGUCGGAUGAGUCCGUGAGGACGAAACAG to ACCGGAUGUGCUUUCCCGUCUGAUGAGUCCGUUAGGACGAAACAG, the self-cleavage rises from 0.352 to 0.623.

First: ACCGGAUGUGCUUUCCCGUCUGAUGAGUCCGUGAGGACGAAACAU
Second: ACCGGAUGUGCUUUCCCGUCUGAUGAGUCCGUGAGGACGAAACAC
The self-cleavage of the first is lower: 0.394 for the first, 0.4 for the second.

Going from ACCGGAUGUGCUUUCCCGUCUGAUGAGUCCGUGAGGACGAAACAA to ACCGGAUGUGCUUUCCUGUCUGAUGAGUCCGUGAGUACGAAACAG, the self-cleavage rises from 0.366 to 0.46.

Compared with ACCGGAUGUGCUUUCCUGUCUGAUGAGUCCGUGAGCACGAAACAG, ACCGGAUGUGCUUUCCUGUCUGAUGAGUCCGUGAGAACGAAACAG is higher in self-cleavage: 0.336 for the first, 0.621 for the second.

Compared with ACCGGAUGUGCUUUCCUGACUGAUGAGUCCGUGAGGACGAAACAG, ACCGGAUGUGCUUUCCUGGCUGAUGAGUCCGUGAGGACGAAACAG is lower in self-cleavage: 0.361 for the first, 0.257 for the second.

Compared with ACCGGAUGUGCUUUCCUGCCUGAUGAGUCCGUGAGGACGAAACAG, ACCGGAUGUGCUUUCCUGUCUGAUGAGUCCGUGAGGACGAACCAG is lower in self-cleavage: 0.397 for the first, 0.394 for the second.

Going from ACCGGAUGUGCUUUCCUGUCUGAUGAGUCCGUGAGGACGAAGCAG to ACCGGAUGUGCUUUCCUGUCUGAUGAGUCCGUGAGGACGAAUCAG, the self-cleavage rises from 0.333 to 0.369.

ACCGGAUGUGCUUUCCGAUCUGAUGAGUCCGUGAGGACGAAACAG gave a self-cleavage of 0.831.
